Measured values reported in the supplement of paper PMC10567573.
± gives the standard deviation.

Assay: protein stability index of a GFP-peptide fusion (GPS, HEK-293T) (PSI 1-6); higher = more stable
Settings: c terminus: a fixed tail appended
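Further: 24-mer peptide tiles fused after GFP, lentivirally expressed, FACS-sorted into six equal bins by GFP/DsRed ratio, decoded by Illumina sequencing, PSI is the read-weighted mean bin number.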

Sequence | protein stability index (treatment: DMSO) | protein stability index (treatment: MLN4924 1 uM, 8 h)
NKPGCEHECVNMEESYYCRCHRGY [MATN2] | 4.3 ± 0.72 | 4.24 ± 0.22
NKYMVTDGAAYIGNFDWVGNDFTQ [PLD5] | 2.87 ± 0.25 | 2.62 ± 0.3
NLVLSEDRKSVKFVETRLRDLPDT [TRIM39] | 4.31 ± 0.25 | 4.37 ± 0.2
NMLKNIELFDKLSLRFNGRVLFIK [KCTD10] | 2.68 ± 0.48 | 2.43 ± 0.35
NNADLCLTDDKQVLNTQGQKTSGQ [DLC1] | 5.18 ± 0.27 | 5.16 ± 0.23
NNSWIRKNSTMVNSEDIFLLLCLK [TRIM43] | 2.84 ± 0.42 | 2.23 ± 0.43
NPPSDFSFQNMNSKRKAETWKKNR [STK38L] | 4.65 ± 0.45 | 4.42 ± 0.22
NPVFQDSWDTESSGSDSGGSSSSS [FAM104A] | 5.37 ± 0.37 | 5.54 ± 0.26
NQAAIMELDDTLKYSFLQFDPAPR [PPP2CA] | 3.25 ± 0.17 | 3.38 ± 0.21
NQACKLLSDDYEQVRSAAVQLIWV [INTS4] | 2.62 ± 0.29 | 2.59 ± 0.36
NQLVGPESIAHIGDVMFTGTADGR [APMAP] | 4.77 ± 0.31 | 4.69 ± 0.08
NRRLQLLEEENKERAKREMVMYSI [MFF] | 3.96 ± 0.19 | 3.6 ± 0.13
NSDMQILTASGDGTCALWDVESGQ [GNB5] | 4.81 ± 0.085 | 4.61 ± 0.36
NTNNLTFLMDLPSAGRSMPEASDQ [RNF180] | 4.28 ± 0.14 | 4.39 ± 0.2
NVVTIGLAFFPFLHRLFREKSLDQ [PHTF1] | 2.24 ± 0.32 | 2.3 ± 0.47
NYTSRVWEYSSSIQNSDNDLPVVQ [TRIM29] | 3.88 ± 0.26 | 4.02 ± 0.32
NYVAKNFAQALGCVLYACFILGRL [SOAT2] | 3.46 ± 0.38 | 2.85 ± 0.38
PAAPGAGGGSGSAPGPSRIADYLL [TRIB1] | 4.02 ± 0.68 | 4.14 ± 0.21
PAGEMKPMPLSEGKSILLFGGAAA [BCL2L13] | 3.53 ± 0.15 | 3.75 ± 0.27
PCLGHTFNAGIQQAFQLPKLGALL [ZBED1] | 2.36 ± 0.37 | 2.02 ± 0.24
PCLLGSRVFSQGSHAWEVALGGLQ [TRIM35] | 2.36 ± 0.15 | 2.35 ± 0.19
PDLRDIELKLGRKVPESLVRSLRG [LURAP1L] | 3.16 ± 0.4 | 3.17 ± 0.41

Sequence | protein stability index (treatment: DMSO) | protein stability index (treatment: MLN4924 1 uM, 8 h)
PECTRCGHGIVGTIVKARDKLYHP [PDLIM4] | 2.35 ± 0.13 | 2.56 ± 0.21
PEGPEPAAPGKQPGRGHTHAAQGG [ELOA2] | 5.39 ± 0.27 | 5.51 ± 0.16
PEKLIWGDQDPLSKIPFKILSGHE [WDR88] | 3.43 ± 0.85 | 3.45 ± 0.44
PEMRWNKGTILKASVDYIRKLQKE [TFE3] | 2.91 ± 0.24 | 2.95 ± 0.17
PEPWPGGCTGDEAESRGHSKGWGR [MYCL] | 4.18 ± 0.12 | 4.46 ± 0.56
PGEPNNAGNNEHCGNIKAPSLQAW [CD207] | 4.38 ± 0.12 | 4.21 ± 0.078
PGFSSLSLSDQMSVLQSVWMEVLV [ESRRA] | 2.38 ± 0.33 | 2.08 ± 0.27
PGGDQGGPPVGPLSLGLATVDIQN [WAS] | 4.75 ± 0.22 | 4.71 ± 0.087
PGGPCDSTLGGDIRESDPEQAPAP [TBX6] | 5.49 ± 0.16 | 5.44 ± 0.29
PGKETLESALIALDSEKPKKLRFH [EHMT1] | 4.06 ± 0.24 | 4.11 ± 0.45
PGNQAEHGAVTVGGTSVGSLGVPG [ZBTB22] | 4.89 ± 0.25 | 4.75 ± 0.26
PGYPKMIAHDFPGIGHKVDAVFMK [MMP1] | 2.75 ± 0.17 | 3.02 ± 0.33
PHFLQGGPFPLPYTAPGGYLDVGS [TBX6] | 2.93 ± 0.56 | 2.76 ± 0.33
PHLMQEHMGTNVIVANTMPTHLSN [HNF4A] | 3.83 ± 0.19 | 3.97 ± 0.24
PISVHCSAGVGRTGVFITLSIVLE [PTPRD] | 2.96 ± 0.26 | 2.6 ± 0.21
PITRKAAQLYTLWVTFQVLLYTSL [DHCR7] | 3.07 ± 0.22 | 2.56 ± 0.51
PKDLDPSLCTHLIYAFAGMTNHQL [CHIT1] | 2.75 ± 0.44 | 2.46 ± 0.6
PLGGGVGGQDGLGAPKDQQQPPQQ [KLHL14] | 5.31 ± 0.39 | 5.33 ± 0.26
PLLLSHTLQELLARDTVQVELIPE [SNX8] | 2.71 ± 0.23 | 2.73 ± 0.31
PNCLSMGSRCLKTFEVPEENTAET [ZBED1] | 4.89 ± 0.39 | 4.93 ± 0.15
PPGIPPLMPGVPPLMPGMPPVMPG [ZNF207] | 3.9 ± 0.23 | 4.07 ± 0.21
PPHICWDETHFGKMGSYYINRTFF [POMT2] | 2.1 ± 0.44 | 2.23 ± 0.4

Sequence | protein stability index (treatment: DMSO) | protein stability index (treatment: MLN4924 1 uM, 8 h)
PPLNPTSWWADLRALARNLIFGLI [SPNS1] | 4.75 ± 0.3 | 4.74 ± 0.32
PPLRLWRSVIEVPAVPEEILKRLL [DLC1] | 2.26 ± 0.46 | 2.43 ± 0.18
PPPAYEPPAPAPLPPPSAPSLQPS [SCAMP3] | 5.04 ± 0.18 | 4.97 ± 0.11
PPPLTSPSHGSLSHSKAPSGSQMS [NCF4] | 4.83 ± 0.23 | 4.92 ± 0.35
PPQPCATACKPVIRVPSVPPVPCV [KRT36] | 2.9 ± 0.28 | 2.91 ± 0.16
PPWGLGPGAGDPAPGIGPPEPWPG [MYCL] | 3.63 ± 0.39 | 3.92 ± 0.058
PQCIKEEDTPSDNDSGICMSPESY [ATF4] | 5.2 ± 0.23 | 5.28 ± 0.1
PQKRKPQEQLLECNKLCGRGQSRQ [SLC2A12] | 4.1 ± 0.37 | 4.4 ± 0.056
PRCKTTKYRNPSLKLMVNVCGHTL [MNAT1] | 2.39 ± 0.18 | 2.31 ± 0.23
PRELFPPLFMAAFDGRHSQTLKAM [PRAME] | 2.65 ± 0.41 | 2.69 ± 0.27
PRKRRRNGNEEDNHLPPQTKRSSR [FAM104A] | 5.34 ± 0.16 | 5.36 ± 0.16
PRPPSNPPARGTLKTSNLPEELRK [TRAF3IP2] | 4.71 ± 0.2 | 4.79 ± 0.3
PRPVQLDETHPYTVTSVSCCHGNT [NEK8] | 3.94 ± 0.23 | 4.02 ± 0.14
PSALFSKIRRGQFCIPEHISPKAR [TRIB1] | 2.81 ± 0.37 | 3.06 ± 0.47
PSEWRPLSEGCRAELAETIVYARV [CCDC3] | 3.14 ± 0.32 | 2.51 ± 0.23
PSLQPSRKLSPTEPKNYGSYSTQA [SCAMP3] | 4.4 ± 0.35 | 4.5 ± 0.22
PSSPLRLGSYKAQKTSRSSSIPCS [PPEF2] | 3.86 ± 0.24 | 3.95 ± 0.21
PSSQLMPVKKQLQGASWELQSLRP [ZNF396] | 3.66 ± 0.34 | 3.78 ± 0.25
PTPSTPRPTPQDWLHRRAQILEIL [ADAMTS4] | 2.97 ± 0.23 | 2.98 ± 0.25
PTYSDFCQFRPPVRVNDGGGSHPS [VDR] | 3.9 ± 0.25 | 4.03 ± 0.18
PVGQEIVIPFKVDTILKYLKDHFS [IQUB] | 2.33 ± 0.73 | 1.95 ± 0.39
